T1: FimC, periplasmic chaperone of type 1 pili (Escherichia coli, UniProt P31697 37-241)
T1 construct: FimC, periplasmic chaperone of type 1 pili, Escherichia coli; source: E. coli BL21(DE3) with pFimC-cyt, purified (SP-Sepharose, Superdex 75 SEC)
T1 sequence: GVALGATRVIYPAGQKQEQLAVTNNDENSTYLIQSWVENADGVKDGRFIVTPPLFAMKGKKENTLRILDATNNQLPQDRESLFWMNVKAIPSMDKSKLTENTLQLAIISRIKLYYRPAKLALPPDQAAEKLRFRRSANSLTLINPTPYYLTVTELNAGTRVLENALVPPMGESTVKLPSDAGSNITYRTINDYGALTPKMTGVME

T2: FimChis (Escherichia coli, UniProt P31697 37-241)
T2 construct: FimC, periplasmic chaperone of type 1 pili, Escherichia coli; source: E. coli BL21(DE3) with pFimChis-cyt, purified (SP-Sepharose, Superdex 75 SEC)
T2 sequence (looked up): T1 sequence

B1: PapA, main structural subunit of the P pilus rod (co-expressed with PapDhis) (natural protein)
chain: APTIPQGQGKVTFNGTVVDAPCSISQKSADQSIDFGQLSKSFLEAGGVSKPMDLDIELVNCDITAFKGGNGAKKGTVKLAFTGPIVNGHSDELDTNGGTGTAIVVQGAGKNVVFDGSEGDANTLKDGENVLHYTAVVKKSSAVGAAVTEGAFSAVANFNLTYQ
notes: PapA, main structural subunit of the P pilus rod, Escherichia coli; also called in vitro-assembled P pili; source: E. coli HM125 with PapDA (pTRC99a), periplasmic extract; purified as a complex with PapDhis (HisTrap, Source 30S, SEC)
B2: FimA, main structural subunit of the type 1 pilus rod (recombinant, assembled in vitro) (natural protein)
chain: AATTVNGGTVHFKGEVVNAACAVDAGSVDQTVQLGQVRTASLAQEGATSSAVGFNIQLNDCDTNVASKAAVAFLGTAIDAGHTNVLALQSSAAGSATNVGVQILDRTGAALTLDGATFSSETTLNNGTNTIPFQARYFATGAATPGAANADATFKVQYQ
notes: FimA, main structural subunit of the type 1 pilus rod of Escherichia coli; printed residue numbers run to Q159; The same FimA was used for rods assembled from FimA monomers, from FimA-FimC complexes and with FimD (FimD-cat); also called FimA monomers; self-complemented FimA

Experiments:
[1] = target: the molecule itself; test: negative-stain EM; P pilus rods assembled in vitro from 50 µM PapA-PapDhis complex, 20 mM Tris-HCl pH 8.0, 50 mM NaCl, 37 °C, 7 days
[2] = target: the molecule itself; test: cryo-EM structure; in vitro-assembled type 1 pilus rods, helical reconstruction, 2.69 Å; sample diluted to 100 µM in ddH2O
[3] = target: T1, FimC, periplasmic chaperone of type 1 …; test: SEC; complex formed by rapid dilution of unfolded, disulfide-intact FimA into FimC (15 min, 23 °C), then Sephadex G25, Source 30S cation exchange and Superdex 75 in 20 mM Tris-HCl pH 8.0, 50 mM NaCl; conditions: both partners purified
FimChis = target: T2, FimChis; test: as above; conditions: both partners purified

| Binder | binding result [1] | binding result [2] | binding result [3] | binding result (FimChis) |
| --- | --- | --- | --- | --- |
| B1 | binds | – | – | – |
| B2 | – | binds | binds | binds |
